Source: PMC13082787, “A lipoprotein partner for the Escherichia coli outer membrane protein TolC” (eLife, 2026)
“And” between values parts separate entries of the source, which are not always exact repeats. Equal values may be shown once.

T1: Detergent-purified FLAG-tagged TolC (E. coli, UniProt P02930 23-493)
T1 construct: also called TolC-FLAG; source: detergent-purified
T1 sequence (looked up): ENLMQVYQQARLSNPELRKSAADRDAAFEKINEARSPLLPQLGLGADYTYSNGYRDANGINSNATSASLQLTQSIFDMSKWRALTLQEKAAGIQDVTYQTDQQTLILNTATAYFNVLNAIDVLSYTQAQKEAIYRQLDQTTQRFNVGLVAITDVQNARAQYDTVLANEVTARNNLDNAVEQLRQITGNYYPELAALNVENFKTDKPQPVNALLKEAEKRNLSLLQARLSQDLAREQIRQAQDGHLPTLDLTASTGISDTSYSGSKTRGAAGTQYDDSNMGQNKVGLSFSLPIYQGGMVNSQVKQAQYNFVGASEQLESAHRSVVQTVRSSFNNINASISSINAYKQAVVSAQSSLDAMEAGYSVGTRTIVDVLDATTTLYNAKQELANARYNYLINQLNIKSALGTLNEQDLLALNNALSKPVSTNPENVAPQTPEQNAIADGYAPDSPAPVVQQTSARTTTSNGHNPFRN

T2: TolC-FLAG (DDM-purified full-length TolC with a C-terminal FLAG-tag) (E. coli, UniProt P02930 23-493)
T2 construct: also called FLAG-tagged TolC; source: DDM-purified TolC-FLAG; not shown: FLAG, C-terminal, kept
T2 sequence (looked up): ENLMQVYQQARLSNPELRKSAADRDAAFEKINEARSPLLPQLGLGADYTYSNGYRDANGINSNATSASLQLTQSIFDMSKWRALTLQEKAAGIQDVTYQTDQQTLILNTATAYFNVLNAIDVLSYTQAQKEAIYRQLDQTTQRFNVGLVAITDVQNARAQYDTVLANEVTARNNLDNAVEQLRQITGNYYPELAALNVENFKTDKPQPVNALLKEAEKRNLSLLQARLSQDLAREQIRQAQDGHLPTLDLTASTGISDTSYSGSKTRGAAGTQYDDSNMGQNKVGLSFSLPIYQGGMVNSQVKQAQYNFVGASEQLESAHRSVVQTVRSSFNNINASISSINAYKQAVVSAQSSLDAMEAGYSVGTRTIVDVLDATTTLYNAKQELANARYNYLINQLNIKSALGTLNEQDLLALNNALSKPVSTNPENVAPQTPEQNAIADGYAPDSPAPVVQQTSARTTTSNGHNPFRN


Tests used:
[1] = target: T1, Detergent-purified FLAG-tagged TolC; test: ITC; ITC200, 25°C; 230 µM N-terminally His-tagged soluble YbjP injected into 40 µM TolC; 20 mM HEPES pH 7.5, 200 mM NaCl, 0.03% DDM; single-site model; details: both partners purified
[2] = target: T2, TolC-FLAG (DDM-purified full-length …); test: ITC; N-terminally His-tagged YbjPs at 230 µM injected into 40 µM TolC-FLAG in the cell; 25°C; 20 mM HEPES pH 7.5, 200 mM NaCl, 0.03% (wt/vol) DDM; single-site binding model; two independent measurements; details: both partners purified

| Kd [1] | Kd [2] | stoichiometry N [2] | Binder |
| --- | --- | --- | --- |
| ~4 µM |  |  | Soluble YbjP (D28-R171) with an N-terminal His-tag (domain or fragment, E. coli, UniProt P75818 28-171, looked up, also called YbjPs; YbjP_(28-171); not shown: His tag, N-terminal, kept) DNGTRSGPCVEGGPDNVAQQFYDYRILHRSNDITALRPYLSDKLATLLSDASRDNNHRELLTNDPFSSRTTLPDSAHVASASTIPNRDARNIPLRVDLKQGDQGWQDEVLMIQEGQCWVIDDVRYLGGSVHATAGTLRQSIENR |
|  | 4.1 µM and 5.9 µM and 5 µM | 0.64 and 0.42 and 0.53 | soluble YbjP (YbjPs), residues 28-171, N-terminally His-tagged (domain or fragment, E. coli, UniProt P75818 28-171, looked up, also called YbjP_(28-171); YbjP soluble; source: E. coli BL21 (DE3), purified from the cytoplasm (HisTrap FF, dialysis); not shown: His-tag, N-terminal, kept) DNGTRSGPCVEGGPDNVAQQFYDYRILHRSNDITALRPYLSDKLATLLSDASRDNNHRELLTNDPFSSRTTLPDSAHVASASTIPNRDARNIPLRVDLKQGDQGWQDEVLMIQEGQCWVIDDVRYLGGSVHATAGTLRQSIENR |
